From US4585754A, “Stabilization of proteins and peptides by chemical binding with chondroitin” (Valcor Scientific, Ltd., priority 1984, dated 1986)

Experiments:
[1] = native, unmodified protein; cited from earlier work
blood glucose levels = experiment: lowering blood glucose levels in mice, bound versus free insulin; type: in vivo, Female CD-1 Swiss white mice; conditions: subcutaneous, fasted mice
Protocol: Female CD-1 Swiss white mice averaging 20 g in weight were fasted overnight and used in groups of four. The insulins were injected subcutaneously, and blood specimens (50 microliters, by retro-orbital bleeding) were taken at intervals of 0.5, 3, 6, and 24 hours.

trypsin = experiment: stability against proteolytic digestion by trypsin; type: in vitro ADME; conditions: 50 mcg./ml. trypsin, pH 7.8, 23 C, 10 mg./ml., after just over forty minutes
Protocol: (§1) The SOD-chondroitin sulfate A product was tested for stability against proteolytic digestion. An aqueous solution containing 10 mg./ml. of the product was incubated with 50 mcg./ml. of trypsin at pH 7.8 and 23 C, and aliquots were withdrawn from time to time and the SOD activity determined. For comparison, SOD alone with incubated with trypsin under the same conditions. After just over forty minutes, approximately 88 percent of the SOD-chondroitin product remained in the solution, compared with only about 8 percent of the unprotected SOD. This is a difference in stability of over eight-fold.

pepsin = experiment: stability against proteolytic digestion by pepsin; type: in vitro ADME; conditions: pepsin 500 ng./ml., pH 3.5, at two minutes
Protocol: as §1
Inasmuch as trypsin is known to be a very specific protease, cleaving only at the arginine and lysine residues, a further test was carried out according to substantially the same procedure using pepsin, a much more vigorous protease. The pH was kept low (3.5), since the optimum pH for pepsin is known to about 1.0-1.5. Even at the lowest concentration of pepsin tested (500 ng./ml.), digestion was very fast, but there was some degree of protection by the chondroitin compared with unprotected SOD.

Substance	half-life in the body [1]	blood glucose level at 24 hours (blood glucose levels; all dose levels, 24 hours)	comatose state (blood glucose levels; doses of 5.7 micrograms and above)	percent remaining in the solution (SOD activity) (trypsin)	SOD remaining after pepsin digestion (pepsin)
insulin [free insulin]	about 15 minutes	significant rebound glucose level by 24 hours	comatose in one-half hour	–	–
superoxide dismutase [unprotected SOD]	about five	–	–	about 8%	essentially all destroyed
